{"source": "paper PMC10288592", "about": "“A linker protein from a red-type pyrenoid phase separates with Rubisco via oligomerizing sticker motifs” (Proceedings of the National Academy of Sciences of the …, 2023)", "binders": {"B1": {"name": "Phaeodactylum tricornutum Rubisco (L8S8 holoenzyme) (complex)", "chain 1": "MSQSVSERTRIKSDRYESGVIPYAKMGYWDAAYAVKNTDVLALFRITPQPGVDPVEAAAAVAGESSTATWTVVWTDLLTACDRYRAKAYRVDPVPNTTDQYFAFIAYECDLFEEGSLANLTASIIGNVFGFKAVSALRLEDMRIPHSYLKTFQGPATGVIVERERLNKYGIPLLGATVKPKLGLSGKNYGRVVYEGLKGGLDFLKDDENINSQPFMRWRERFLYCMEGINRASAATGETKGSYLNITAGTMEEVYKRAEYAKTVGSIVVMIDLVMGYTAIQSAAIWARDNDLILHLHRAGNSTYARQKNHGINFRVICKWMRMCGVDHIHAGTVVGKLEGDPLMIKGFYDTLLLTHLNVNLPYGIFFEMTWASLRKCMPVASGGIHCGQMHQLVHYLGDDVVLQFGGGTIGHPDGIQAGATANRVALEAMILARNEGADYFNSDIGPQILRNAAKTCGPLQTALDLWKDISFNYTSTDTSDFSVTPTANV", "chain 2": "MRLTQGCFSFLPDLTDQQIEKQIAYCITKGWAMNVEWTDDPHPRNSYWELWGLPLFDVKDPASVMFELREARKSCAAGYIRINAFNAAYGTESCVMSFIVNRPSNEPGFYLERQELEGRRIAYTTKSYSVQANPEGGRY", "notes": "Rubisco large subunit (LSU) of Phaeodactylum tricornutum, Form ID; Rubisco small subunit (SSU) of Phaeodactylum tricornutum, Form ID; For microscopy spiked with 0.3% or 0.6% atto-594-labeled PtRubisco; also called PtRubisco; diatom Rubisco; source: purified directly from diatoms (P. tricornutum); endogenous, soluble algal lysate (immunoprecipitation); copies: 8 + 8"}}, "molecular_target": "T1, PYCO1 (pyrenoid component 1), recombinant, residues 31 to 592 (Phaeodactylum tricornutum)", "T1 chain": "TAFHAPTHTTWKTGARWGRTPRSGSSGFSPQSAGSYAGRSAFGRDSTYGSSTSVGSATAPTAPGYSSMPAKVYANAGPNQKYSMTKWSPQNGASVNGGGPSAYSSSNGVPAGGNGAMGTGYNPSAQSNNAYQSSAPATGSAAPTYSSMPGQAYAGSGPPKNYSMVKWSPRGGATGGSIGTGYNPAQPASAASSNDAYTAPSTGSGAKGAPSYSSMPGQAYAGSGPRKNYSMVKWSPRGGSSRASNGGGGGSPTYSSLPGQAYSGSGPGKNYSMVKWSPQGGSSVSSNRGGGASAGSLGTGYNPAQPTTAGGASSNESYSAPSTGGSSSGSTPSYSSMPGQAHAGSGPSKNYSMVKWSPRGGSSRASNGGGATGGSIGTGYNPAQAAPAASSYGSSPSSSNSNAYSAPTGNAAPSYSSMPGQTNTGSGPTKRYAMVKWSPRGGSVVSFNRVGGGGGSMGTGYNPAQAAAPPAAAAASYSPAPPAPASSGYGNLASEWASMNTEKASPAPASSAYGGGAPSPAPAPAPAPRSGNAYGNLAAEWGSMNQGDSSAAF", "test": "co-sedimentation; heterotypic: Rubisco and PYCO1 (or variant) mixed at various ratios, 20 mM Tris-HCl pH 8.0, 150 mM NaCl; condensates sedimented and analysed", "conditions": "both partners purified"}
{"binder": "B1", "values": [{"measurement": "stoichiometry N", "value": "3 Rubisco (L8S8) per PYCO1"}]}
